Here are results for 2 proteins from patent US20080249606.

The target of data set [1] is lysozyme exposed to Microlance-3 injection needles, P00698.
Data set [2] deals with glycated haemoglobin (Hb-AGE), P69905.
In data set [3] the target is BSA exposed to Ellagic acid, P02769.
The target of data set [4] is T1, endostatin exposed to Ellagic acid, P39060.
T1 chain: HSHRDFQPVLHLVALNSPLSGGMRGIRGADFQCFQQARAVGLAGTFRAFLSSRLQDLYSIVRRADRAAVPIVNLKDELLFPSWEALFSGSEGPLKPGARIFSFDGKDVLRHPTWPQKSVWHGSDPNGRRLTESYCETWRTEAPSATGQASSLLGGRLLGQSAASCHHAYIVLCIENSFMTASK

For data set [5], the target named is endostatin incubated overnight with DXS500k, P39060.
Data set [6] addresses endostatin exposed to kaolin, P39060.
The target of data set [7] is Gelofusin mixed with lipopolysaccharide (LPS).
For data set [8], the target named is Gelofusin (Braun Melsungen AG).
Data set [9] deals with Gelofusin mixed with kaolin.
Data set [10] addresses BSA incubated overnight with dextran sulphate 500,000 Da (DXS500k), P02769.
Data set [11] deals with endostatin, a recombinantly produced fragment of human collagen XVIII (EntreMed), P39060.
Data set [12] deals with BSA exposed to kaolin, P02769.
Chain of BSA exposed to kaolin, P02769 (P02769 25-607): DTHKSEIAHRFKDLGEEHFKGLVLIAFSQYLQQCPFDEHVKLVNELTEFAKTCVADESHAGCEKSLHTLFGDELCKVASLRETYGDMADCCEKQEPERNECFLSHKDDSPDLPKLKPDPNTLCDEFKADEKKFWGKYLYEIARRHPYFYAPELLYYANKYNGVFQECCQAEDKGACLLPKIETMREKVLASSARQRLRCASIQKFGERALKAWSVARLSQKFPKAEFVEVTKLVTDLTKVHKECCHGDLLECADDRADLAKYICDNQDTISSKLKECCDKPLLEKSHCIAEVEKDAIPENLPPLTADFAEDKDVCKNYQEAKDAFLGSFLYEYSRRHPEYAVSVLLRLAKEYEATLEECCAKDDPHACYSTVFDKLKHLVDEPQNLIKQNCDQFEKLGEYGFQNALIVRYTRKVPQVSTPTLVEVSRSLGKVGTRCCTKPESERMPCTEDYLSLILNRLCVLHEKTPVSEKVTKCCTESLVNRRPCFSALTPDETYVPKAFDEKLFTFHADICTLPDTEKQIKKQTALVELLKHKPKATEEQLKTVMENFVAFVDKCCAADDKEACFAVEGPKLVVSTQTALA
For data set [13], the target named is Bovine serum albumin (BSA), P02769.
Chain of Bovine serum albumin (BSA), P02769 (P02769 25-607): as above

Chain of lysozyme exposed to Microlance-3 injection needles, P00698 (P00698 19-147): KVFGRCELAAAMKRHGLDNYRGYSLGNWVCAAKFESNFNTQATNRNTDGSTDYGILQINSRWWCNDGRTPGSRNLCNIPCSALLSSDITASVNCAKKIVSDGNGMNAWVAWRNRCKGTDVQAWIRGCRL
Chain of glycated haemoglobin (Hb-AGE), P69905 (P69905 2-142, chain 1 of 2): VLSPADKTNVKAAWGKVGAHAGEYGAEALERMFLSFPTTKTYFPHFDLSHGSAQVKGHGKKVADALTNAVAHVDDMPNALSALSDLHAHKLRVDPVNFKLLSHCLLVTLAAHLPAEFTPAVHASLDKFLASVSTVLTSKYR
Chain of glycated haemoglobin (Hb-AGE), P69905 (chain, as listed by the source, chain 2 of 2): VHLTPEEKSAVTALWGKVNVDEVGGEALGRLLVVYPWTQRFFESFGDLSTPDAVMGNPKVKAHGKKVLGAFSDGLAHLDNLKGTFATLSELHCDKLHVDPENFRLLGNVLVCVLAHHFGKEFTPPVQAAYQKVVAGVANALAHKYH
Chain of BSA exposed to Ellagic acid, P02769 (P02769 25-607): as the sequence (P02769 25-607) above
Chain of BSA incubated overnight with dextran sulphate 500,000 Da (DXS500k), P02769 (P02769 25-607): as above

B1: tissue-type plasminogen activator (tPA, Actilyse, Boehringer-Ingelheim) (protein)
chain: SYQVICRDEKTQMIYQQHQSWLRPVLRSNRVEYCWCNSGRAQCHSVPVKSCSEPRCFNGGTCQQALYFSDFVCQCPEGFAGKCCEIDTRATCYEDQGISYRGTWSTAESGAECTNWNSSALAQKPYSGRRPDAIRLGLGNHNYCRNPDRDSKPWCYVFKAGKYSSEFCSTPACSEGNSDCYFGNGSAYRGTHSLTESGASCLPWNSMILIGKVYTAQNPSAQALGLGKHNYCRNPDGDAKPWCHVLKNRRLTWEYCDVPSCSTCGLRQYSQPQFRIKGGLFADIASHPWQAAIFAKHRRSPGERFLCGGILISSCWILSAAHCFQERFPPHHLTVILGRTYRVVPGEEEQKFEVEKYIVHKEFDDDTYDNDIALLQLKSDSSRCAQESSVVRTVCLPPADLQLPDWTECELSGYGKHEALSPFYSERLKEAHVRLYPSSRCTSQHLLNRTVTDNMLCAGDTRSGGPQANLHDACQGDSGGPLVCLNDGRMTLVGIISWGLGCGQKDVPGVYTKVTNYLDWIRDNMRP
Consider B1, for which the “Plg-activation assay (plasmin substrate S-2251)” value in data set [1] was “When the plasma protein lysozyme is exposed to the stainless steel of a Microlance-3 injection needle, tPA activating properties are induced”.

B2: factor XII (FXII, Calbiochem 233490) (protein)
chain: IPPWEAPKEHKYKAEEHTVVLTVTGEPCHFPFQYHRQLYHKCTHKGRPGPQPWCATTPNFDQDQRWGYCLEPKKVKDHCSKHSPCQKGGTCVNMPSGPHCLCPQHLTGNHCQKEKCFEPQLLRFFHKNEIWYRTEQAAVARCQCKGPDAHCQRLASQACRTNPCLHGGRCLEVEGHRLCHCPVGYTGAFCDVDTKASCYDGRGLSYRGLARTTLSGAPCQPWASEATYRNVTAEQARNWGLGGHAFCRNPDNDIRPWCFVLNRDRLSWEYCDLAQCQTPTQAAPPTPVSPRLHVPLMPAQPAPPKPQPTTRTPPQSQTPGALPAKREQPPSLTRNGPLSCGQRLRKSLSSMTRVVGGLVALRGAHPYIAALYWGHSFCAGSLIAPCWVLTAAHCLQDRPAPEDLTVVLGQERRNHSCEPCQTLAVRSYRLHEAFSPVSYQHDLALLRLQEDADGSCALLSPYVQPVCLPSGAARPSETTLCQVAGWGHQFEGAEEYASFLQEAQVPFLSLERCSAPDVHGSSILPGMLCAGFLEGGTDACQGDSGGPLVCEDQAAERRLTLQGIISWGSGCGDRNKPGVYTDVAYYLAWIREHTVS
As for B2, in data set [2], the FXII activation entry is recorded as “Presence of cross-β structure conformation in Hb-AGE was conformed by tPA binding, tPA activation, FXII activation”. Also, the “chromogenic factor XII/prekallikrein activation assay” value in data set [3] and in [4] was “exposure of the proteins to the polyphenol surface induces increased capacity to activate factor XII/prekallikrein” each time. Further, the “FXII activation (conversion of Chromozym-PK by kallikrein)” value in [5] was “combinations of surface and protein cofactor results in FXII and subsequent prekallikrein activity”; in [6], “combinations of surface and protein cofactor results in FXII and subsequent prekallikrein activity”; in data set [10], “combinations of surface and protein cofactor results in FXII and subsequent prekallikrein activity”; in [11], “Neither BSA or endostatin alone, nor kaolin or DXS500k alone are efficient activators of FXII”; in data set [12], “combinations of surface and protein cofactor results in FXII and subsequent prekallikrein activity”; in [13], “Neither BSA or endostatin alone, nor kaolin or DXS500k alone are efficient activators of FXII”. Besides, the “chromogenic factor XII/prekallikrein activation assay with active enzyme kallikrein read-out” value in data set [7] is reported as “enhanced activity is seen when Gelofusin is mixed with kaolin or LPS”; in [8] it was “Gelofusin alone does not stimulate factor XII/prekalikrein activation”; in [9], “enhanced activity is seen when Gelofusin is mixed with kaolin or LPS”.
